Where a SMILES comes first, the peptide text is derived from it. Bridges are numbered along the chain shown (N, C = ends). [ ]: non-standard residue; d: D form. The star is where a group is joined. ξ: configuration not given here. X1 = CC[C@@]1(OC(=O)OCCSSC[C@H](NC(C)=O)C(=O)*)C(=O)OCc2c1cc1n(c2=O)Cc2cc3ccccc3nc2-1; S(CH2)2OCO2(CPT-20-yl) = CC[C@@]1(OC(=O)OCCS*)C(=O)OCc2c1cc1n(c2=O)Cc2cc3ccccc3nc2-1; ξR = N=C(N)NCCCC(N)C(=O)O
Key:
[1] = In vivo hydrogel formation and degradation after subcutaneous injection; parameters: species or system C57BL/6 mice; conditions: within 45 days
Protocol: 100 μl of 7.2 mM P-NT solution or diCPT-iRGD NT solution (5.75 mM, 100 μL) was injected into the back of C57BL/6 mice. The mice were then sacrificed at predetermined time points (1 hour, 5, 15, 30 and 45 days). The remaining hydrogel in each mouse was photographed and the amount of drug that persisted within the hydrogel was determined using HPLC.

[2] = GSH responsive drug release of CPT prodrugs; format: in vitro ADME; conditions: presence of GSH, within 2 hours
Protocol: Briefly, 20 mM glutathione (GSH) and 400 μM diCPT-PLGLAG-iRGD or diCPT-iRGD stock solutions were prepared in water or PBS (pH 7.4). Equal volumes of GSH and diCPT-PLGLAG-iRGD or diCPT-iRGD solutions were then mixed to reach a final GSH concentration of 10 mM and the mixtures were incubated at 37° C. Samples were then taken at predetermined time points (0, 0.5, 1, 2, 4, 8, 12 and 24 h) and quantified using HPLC.

GL-261 cells = experiment: Cytotoxicity assay (MTT or WST-1); format: cell-based; conditions: 48 h incubation
Protocol: GL-261 cells (2.5×10^3 cells/well) were incubated in a 96-well plate overnight. The cells were then treated with varying concentrations of CPT or diCPT-PLGLAG-iRGD or diCPT-iRGD solutions, with untreated cells used as a control. After 48 h incubation, cell viability was tested using an MTT or WST-1 assay. The percentage of cell viability was calculated as follows: Cell Viability (%)=A570sample/A570control×100%. IC50 values of the drug formulations were analyzed using Graph Pad Prism 5.

GL-261 tumor spheroids = experiment: Inhibition of tumor spheroids; format: cell-based; conditions: CPT concentration of 5 μM
Protocol: GL-261 cells were seeded at a density of 1×10^4 cells/well into agarose coated 48-well plates. After the culture plates were incubated at 37° C. for 7 days, the spheroids were treated with free CPT, NT and P-NT at the CPT concentration of 5 μM. The tumor spheroids were photographed every two days. Growth inhibition was evaluated by measuring the size of the tumor spheroids. Volume of the tumor spheroids was calculated using the equation […], with dmax dmin representing the maximum and minimum diameter of the spheroid, respectively.

GL-261 tumors = experiment: Tumor tissue penetration, fluorescence imaging of tumor sections (NT vs NT-Sham); format: in vivo, GL-261 tumor-bearing mice; conditions: day 3 after intratumoral injection
From the text: FIG. 39 is fluorescence imaging of tumor sections to specifically analyze the information from tumor areas of GL-261 tumor-bearing mice that intratumoral injected with NT-Sham (NTs formed from diCPT-iRGRD) or NT. The images were obtained on day 3 day after treatment. Blue: CPT (Excitation at 365 nm), Red: DRAQS™ stained nuclei, scale bar: 500 μm.

[3] = Intratumoral retention of Cy7-labeled CDA (IVIS); format: in vivo, GL-261 tumor-bearing mice; conditions: intratumoral injection
Protocol: At predetermined time points, fluorescence images were recorded by an IVIS Spectrum imaging system (Perkin Elmer).

In the case of `CC[C@@]1(OC(=O)OCCSSC[C@H](NC(C)=O)C(=O)NCCCC[C@H](NC(=O)[C@H](CSSCCOC(=O)O[C@]2(CC)C(=O)OCc3c2cc2n(c3=O)Cc3cc4ccccc4nc3-2)NC(C)=O)C(=O)N[C@H]2CSSC[C@@H](C(N)=O)NC(=O)[C@H](CC(=O)O)NC(=O)[C@@H]3CCCN3C(=O)CNC(=O)C(CCCNC(=N)N)NC(=O)[C@H](CC(=O)O)NC(=O)CNC(=O)[C@H](CCCNC(=N)N)NC2=O)C(=O)OCc2c1cc1n(c2=O)Cc2cc3ccccc3nc2-1` (stereo partly shown) [diCPT-iRGD] (Ac-C(S(CH2)2OCO2(CPT-20-yl))K(X1)CRGD[ξR]GPDC-NH2; disulfide 3-11), the hydrogel degraded [1] is reported as “approximately 75%”, the “free CPT released” value [2] is reported as about 100% and the “cytotoxicity against GL-261 brain tumor cells” value (GL-261 cells) is reported as “potent cytotoxicity”. The “cytotoxicity against 3D tumor spheroids” value (GL-261 tumor spheroids) was “potent cytotoxicity” and the “CPT fluorescence at the tumor periphery” value (GL-261 tumors) was “distinct CPT fluorescence can be observed throughout the tumor and even at the tumor periphery”.

In the case of `Nc1ncnc2c1ncn2[C@@H]1O[C@@H]2COP(O)(=S)O[C@@H]3C(O)[C@@H](COP(O)(=S)O[C@H]2[C@H]1O)O[C@H]3n1cnc2c(N)ncnc21` (stereo partly shown) [free CDA, 2′3′-c-di-AM(PS)2 (Rp,Rp)], the “CDA fluorescence signal in tumors” value [3] is reported as “virtually no fluorescence signal observed five days after injection”.

B1: Human MMP2 recombinant protein (protein)
chain: APSPIIKFPGDVAPKTDKELAVQYLNTFYGCPKESCNLFVLKDTLKKMQKFFGLPQTGDLDQNTIETMRKPRCGNPDVANYNFFPRKPKWDKNQITYRIIGYTPDLDPETVDDAFARAFQVWSDVTPLRFSRIHDGEADIMINFGRWEHGDGYPFDGKDGLLAHAFAPGTGVGGDSHFDDDELWTLGEGQVVRVKYGNADGEYCKFPFLFNGKEYNSCTDTGRSDGFLWCSTTYNFEKDGKYGFCPHEALFTMGGNAEGQPCKFPFRFQGTSYDSCTTEGRTDGYRWCGTTEDYDRDKKYGFCPETAMSTVGGNSEGAPCVFPFTFLGNKYESCTSAGRSDGKMWCATTANYDDDRKWGFCPDQGYSLFLVAAHEFGHAMGLEHSQDPGALMAPIYTYTKNFRLSQDDIKGIQELYGASPDIDLGTGPTPTLGPVTPEICKQDIVFDGIAQIRGEIFFFKDRFIWRTVTPRDKPMGPLLVATFWPELPEKIDAVYEAPQEEKAVFFAGNEYWIYSASTLERGYPKPLTSLGLPPDVQRVDAAFNWSKNKKTYIFAGDKFWRYNEVKKKMDPGFPKLIADAWNAIPDNLDAVVDLQGGGHSYFFKGAYYLKLENQSLKSVKFGSIKSDWLGC
In the case of B1, the “degradation of diCPT-PLGLAG-iRGD by MMP-2 (HPLC, 200 uM conjugate, 2 ug/ml MMP-2, 37 C)” value (diCPT-PLGLAG-iRGD) is reported as 54% cleaved after 8 hours.
